Assay results: the DeepSol protein solubility set

Assay: soluble on expression in E. coli; label from the status in PepcDB or PDB records

Sequence	soluble on expression in E. coli
MSLEKMEDHFILCGYGLMGREIIKELPKDKVVVIDSDIGKVSAAREDGYVAVHGDATDDFTLEKAGIGKAKALICCMSDASNAFAILTAKELNPRIKTVAILRSPDAEKKMRRVGVDILLSPYRDAAKKIISLLSEKAVAEFVETVISGAKSLNLEKVVADEYMDGKTLRELDLRRRTGCIVVAVVRRGDVILPEADTRLEKGDILYILCSGEAPLELEGHHHHHH	soluble
MPHMSEPQRLFFAIDLPAEIREQIIHWRATHFPPEAGRPVAADNLHLTLAFLGEVSAEKEKALSLLAGRIRQPGFTLTLDDAGQWLRSRVVWLGMRQPPRGLIQLANMLRSQAARSGCFQSNRPFHPHITLLRDASEAVTIPPPGFNWSYAVTEFTLYASSFARGRTRYTPLKRWALTQ	not soluble
HAAGFRRGDLVHNTLSYHFSPGGFIMDGGARACGCAVFPAGVGNTEAQIEAIKQLQPTGYTGTPSYLLTLLQKYQEQYGELPSFTKALVSGEAVTADMQQAFTDKGIAVFQAYASAELGLIAYQVAGEQGLVIGED	not soluble
GMSENKKKFDKKGAKNMDEISKTLFAPIYPIIAENIINRFGITAGTCIDIGSGPGALSIALAKQSDFSIRALDFSKHMNEIALKNIADANLNDRIQIVQGDVHNIPIEDNYADLIVSRGSVFFWEDVATAFREIYRILKSGGKTYIGGGFGNKELRDSISAEMIRKNPDWKEFNRKNISQENVERFQNVLDEIGISSYEIILGDEGFWIIISKTDQEVI	soluble
MFEGGHSKSFSIFPIRVVYMPVEQGEVPATILISVSKRRFKRAVKRNRVKRQIREVYRKNKQPLLDGLQNKGQRLAIAFIYLSDELVATAELEEKMKTALSRISEKLSL	not soluble
MAREVKLTKAGYERLMQQLERERERLQEATKILQELMESSDDYDDSGLEAAKQEKARIEARIDSLEDILSRAVILEEGSGEVIGLGSVVELEDPLSGERLSVQVVSPAEANVLDTPMKISDASPMGKALLGHRVGDVLSLDTPKGRREFRVVAIHG	soluble
MPPAVPAAAATARQSASGRERNFKDKDKPESVRNSNIVAAKAVADAVRTSLGPRGMDKMIQSGNGDVTITNDGATILNQMSVIHPTAKMLVELSKAQDIEAGDGTTTVVVMAGALLDAAQNLLSKGIHPTTISESFQSAAAEAEKILDEMSSPVDLSNDALLNKMATTSLNSKVVSQHSWLLAPMAVNAVKKIINSENDSNVNLKMIKIIKKMGDTVEESELIEGALIDQKTMGRGAPTRIEKAKIGLIQFQISPPKTDMENQVIITDYAQMDRALKEERQYLLEICKQIKAAGCNVLLIQKSILRDAVNELALHFLAKMKIMCIKDIEREDIEFYSRILGCRPVASVDHFNADALGYADLVEEIPTGGDGKVIKVTGVQNPGHAVSILLRGSNKLVLEEADRSIHDALCVIRCLVKKKALLPGGGAPEMEIAVKLRNLAQTQHGATQYCWRAFADALELIPYTLAENAGLSPIHTVTELRNNHANGNSSYGVNVRKGYVTDMVEEDVVQPLLVTASAIKQASECVRSILKIDDIVMAVR	not soluble
MNRTAMRASQKDFENSMNQVKLLKKDPGNEVKLKLYALYKQATEGPCNMPKPGVFDLINKAKWDAWNALGSLPKEAARQNYVDLVSSLSPSLESSSQVEPGTDRKSTGFETLVVTSEDGITKIMFNRPKKKNAINTEMYHEIMRALKAASKDDSIITVLTGNGDYYSSGNDLTNFTDIPPGGVEEKAKNNAVLLREFVGCFIDFPKPLIAVVNGPAVGISVTLLGLFDAVYASDRATFHTPFSHLGQSPEGCSSYTFPKIMSPAKATEMLIFGKKLTAGEACAQGLVTEVFPDSTFQKEVWTRLKAFAKLPPNALRISKEVIRKREREKLHAVNAEECNVLQGRWLSDECTNAVVNFLSRKSKL	not soluble
MSKTITWTAALLGSMALAGCSGPKTLYQWEGYQAQVHEYFKGESKEAQAQALEADLEKIRAKNGAVPPGYHAQLGLLYSSIGKDDQMVREFETEKALFPESATYMDFLLNNARGGAR	not soluble
MKLNLITVSLATLVAAGAFPAHAGPQAHVVCGYHHTLGDDAIMMFGKANQAMWHDFFGNTHTDAVSTYQTLRAQPDTTCDNKADSSAYWAPSMKLPDGEIVNPAYQKTYYQSTNVAQYPLHPFPAGLELLAGDHHGTGPSSAITFLCANGKGYTNKVGEICGLRKAGDAVQFNIGIAFPNCWDGVNLKPTHSHNNAIYADHGKCSADYPVKIPTVNMNIAWVLPQISSLDTSKVELSMDPVMHGETREERWGSLYTAHADFMNGWTEDGAQFMTDLCMNQGLDCGTTVPYAYSKAEENTWVSSEDDKPHASVDTLYVQDDWTNGGRTQHPETLTLVKFKIPPLPANMDASLFKYRIRLFGGKTEANGADQIFFYPTSSDWHVSTVSWNNKPAINYRSDAVLYLDHSHEYRMVDVDKAVRKALAEGKTEISWYIGGDRQGNHYDFTPADSKQSLVLMLTGFKKTPELLEHHHHHH	not soluble
SLTPLSAITVRSMEGPPTVQQQSPSVIRQSPTQRRKTSTTSSTSRAPPPTNPDASSSSSSFAVPTIHFKESPFYKIQRLIPELVMNVEVTGGRGMCSAKFKLSKADYNLLSNPNSKHRLYLFSGMINPLGSRGNEPIQFPFPNELRCNNVQIKDNIRGFKSKPGTAKPADLTPHLKPYTQQNNVELIYAFTTKEYKLFGYIVEMITPEQLLEKVLQHPKIIKQATLLYLKKTLREDEEMGLTTTSTIMSLQCPISYTRMKYPSKSINCKHLQCFDALWFLHSQLQIPTWQCPVCQIDIALENLAISEFVDDILQNCQKNVEQVELTSDGKWTAILEDDDDSDSDSNDGSRSPEKGTLGEGAAALEHHHHHH	soluble
MSLYSSENDYIILEDKTATGKKRDWKGKKRRTNLMAEHYEALQSKTGIPYYGKKAEKLCSCAECLSFKRDPETGKLKLYQAQFCKVRLCPMCAWRRSLKIAYHNKLIVEEANRQYGCGWIFLTLTVRNVEGDGLKPMIADMMKGWNRLFGYKRVKVATLGYFRALEITKNHEEDTYHPHFHVLLPVKKSYFTHNYIKQSEWTSLWKRAMKLDYTPIVDIRRVKGRAKIDAEQIESDVREAMMEQKAVLEISKYPVKDTDVVRGNKVTEDNLNTVFYLDDALSARRLIGYGGILKEIHKELNLGDAEDGDLVKIEEEDDEVANEAFEVMAYWHPGIKNYIIREGHHHHHH	not soluble
MGSDKIHHHHHHMSALVDPVTDTDLDAYVDDQLDVTRRIEVEAFLSTRPEAAARVMSDLRTRDELRVALAGSKGMARPATADAARRLERGLARGRIFGVLQRSAAVAAFVAAGWLANGIIGPMSVTKVVASPQPPAYVDEAVRAHRTTLVRETMPSQPEAPNYSAGEIRAATAIVMPSLPKDWKVRDVQIYPSRFGPSVEMAVDTKDMGLVSLFAIRPGTFDVVKPTVAPSGDISSAYFQIGEVAYAVVAKSGVRDLDRAAETLARTLY	not soluble
MSLRILVIEDEISLNKTIIDNLNEFGYQTDSSENFKDGEYFIGIRHYDLVLANWTLPDGDGAELVNTIKHKSPRTSVMIMSSKTDKETEIKALKAGADDFVKKPLDFDILLARIEARLRLGGTNVIKIEDLVIDPDEEKITYKGQDIELKGKPFEVLTHLARHSDQIVSKEQLLDAIWEEPELVTPNVIEVAINQIRQKMDKPLNISTIETVRRRGYRFCFPKKSEGHHHHHH	soluble
MWGACKVKVHDSLATISITLRRYLRLGATMAKSKFEYVRDFEADDTCLAHCWVVVRLDGRNFHRFAEKHNFAKPNDSRALQLMTKCAQTVMEELEDIVIAYGQSDEYSFVFKRKTNWFKRRASKFMTHVASQFASSYVFYWRDYFEDQPLLYPPGFDGRVVVYPSNQTLKDYLSWRQADCHINNLYNTVFWALIQQSGLTPVQAQGRLQGTLAADKNEILFSEFNINYNNEPPMYRKGTVLIWQKVDEVMTKEIKLPTEMEGKKMAVTRTRTKPVPLHCDIIGDAFWKEHPEILDEDS	soluble
MIVMATCLLPDETDDACARNPWISHELVTSTVGPGDGLDLRAACSTGTLISGGCSADTFPDDELSLMRSGFAPDNRDEWLCSFKSLHESVTYEVATMAFCLNEDPLPAECGCCPPLAEQLTIRQTNEPLRNGPNRLEASCEDDEFLLIGNCMLDVPAVSEVESVTMFRYGYPPTDEHPDGDYSKWGCSWHNPTGYTPRALANAVCLPAQ	not soluble
